For 2 substances, relative difference in response between CXCL10 and CXCL8 (kinetic reflectivity shift) and specific binding signal (SPR angular shift) results are on record in patent US20220397533A1.

Experiment [1] addresses poly-L-lysine. In words: SPR imaging, PLL-coated Al microarray, chemokines in PBS buffer; difference against CXCL10 as reference.
Experiment [2] deals with poly-L-lysine. The experiment is described as follows: SPR imaging, PLL-coated Al microarray, chemokines spiked in artificial urine matrix; difference against CXCL10 as reference.
The target in experiment [3] is biotinylated bovine serum albumin (bovine) (UniProt P02769). The experiment is described as follows: SPR angular scanning on Al/Al2O3 film, streptavidin 500 µg/mL in 1xPBS buffer.
Sequence of biotinylated bovine serum albumin (bovine) (P02769 25-607 limits assumed, form in doubt): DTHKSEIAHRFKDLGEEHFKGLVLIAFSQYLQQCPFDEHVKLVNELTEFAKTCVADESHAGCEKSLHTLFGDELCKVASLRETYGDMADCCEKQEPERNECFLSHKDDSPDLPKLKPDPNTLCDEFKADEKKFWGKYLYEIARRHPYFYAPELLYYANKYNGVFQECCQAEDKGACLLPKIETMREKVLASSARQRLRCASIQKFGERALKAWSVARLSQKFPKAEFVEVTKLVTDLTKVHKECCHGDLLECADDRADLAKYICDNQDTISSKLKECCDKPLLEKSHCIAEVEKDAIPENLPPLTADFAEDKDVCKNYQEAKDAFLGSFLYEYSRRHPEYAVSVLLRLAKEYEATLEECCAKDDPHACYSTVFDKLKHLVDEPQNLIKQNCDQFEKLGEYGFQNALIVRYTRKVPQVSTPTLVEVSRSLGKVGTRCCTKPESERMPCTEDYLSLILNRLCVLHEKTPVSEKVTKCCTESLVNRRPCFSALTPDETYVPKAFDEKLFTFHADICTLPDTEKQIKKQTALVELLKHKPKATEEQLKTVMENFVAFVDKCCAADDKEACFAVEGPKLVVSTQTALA
The target is the same in experiment [4]. The experiment is described as follows: SPR angular scanning on Al/Al2O3 film, streptavidin 500 µg/mL spiked in undiluted human serum, serum-only control subtracted.

For the substance “CXCL8 (from UniProt P10145 29-99) (ligand)”, the relative difference in response between CXCL10 and CXCL8 (kinetic reflectivity shift) amounted to 0.25% with poly-L-lysine [1] and 0.68% in the experiment with poly-L-lysine [2].

Take “streptavidin (from UniProt P22629 37-163)”: the values for the specific binding signal (SPR angular shift) in experiment [3] and in experiment [4] were 0.21 ° and 0.17 °, respectively.
